Measurements published in the supplement of paper PMC10126150.
± gives the standard deviation of the averaged measurements.

System: ATP
Experiment: switch fluorescence ratio, 500 uM ATP over buffer (Cy3 cluster intensity, sum of 5 cycles each) (fold (ratio)); higher = stronger signal-on switching upon ATP binding; sequences stand for … in TCGTCGGCAGCGTCAGATGTGTATAAGAGACAGTTTTTTTTTTTTTTTTTTTTTTTTT…TC
Settings: aptamer strand: ATP DNA aptamer (quencher-CACCTGGGGGAGTATTGCGGAGGAAGG + anchor), 100 nM annealed; ATP concentration: 500 uM
Procedure, shortened: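 Switching-strand clusters labelled with Cy3 on a modified Illumina MiSeq flow-cell were annealed to 100 nM quencher-labelled ATP aptamer, imaged in selection buffer, and re-imaged after 15 min with 500 uM ATP at 22 °C. This was done over five cycles with NaOH stripping and re-annealing in between. The fluorescence ratio is summed target-cycle over summed buffer-cycle Cy3 intensity per cluster, averaged per switch-domain sequence, excluding clusters outside 100-1000 RFU.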
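Also: ATP exposure 15 min at 22 °C before imaging.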

Row | Sequence | switch fluorescence ratio
1 | GGGCACGTTT | 0.995 ± 0.011
2 | GGGCAGATAT | 1.02 ± 0.017
3 | GGGCAGGGGG | 1.01 ± 0.04
4 | GGGCATAAAG | 1.02 ± 0.025
5 | GGGCATAGGT | 0.982 ± 0.018
6 | GGGCATGGCT | 0.99 ± 0.016
7 | GGGCCATAAG | 0.988 ± 0.052
8 | GGGCCATATT | 0.963 ± 0.044
9 | GGGCCATGGT | 0.9815 ± 0.0072
10 | GGGCCCATTG | 0.963 ± 0.04
11 | GGGCCCGCTG | 0.987 ± 0.049
12 | GGGCCCGGGA | 0.986 ± 0.018
13 | GGGCCCGTAT | 1.014 ± 0.0091
14 | GGGCCCTGGT | 1.01 ± 0.013
15 | GGGCCGGCTG | 1.01 ± 0.036
16 | GGGCCTCGGG | 0.953 ± 0.04
17 | GGGCCTGATG | 1.01 ± 0.012
18 | GGGCGAAGGG | 0.987 ± 0.032
19 | GGGCGGACGT | 0.969 ± 0.041
20 | GGGCGGGAAC | 1.014 ± 0.0088
21 | GGGCGGGGTG | 1.03 ± 0.025
22 | GGGCGTCGTC | 0.993 ± 0.052
23 | GGGCTAGAGG | 0.974 ± 0.022
24 | GGGCTAGATG | 1 ± 0.018
25 | GGGCTAGTTA | 0.9948 ± 0.0073

Row | Sequence | switch fluorescence ratio
26 | GGGCTATAGA | 0.9984 ± 0.0095
27 | GGGCTATAGC | 0.997 ± 0.056
28 | GGGCTATGCT | 1 ± 0.037
29 | GGGCTCATCA | 0.998 ± 0.041
30 | GGGCTGGTTC | 1.03 ± 0.017
31 | GGGCTGTAAG | 0.997 ± 0.04
32 | GGGCTGTGTG | 1.02 ± 0.035
33 | GGGCTTAGAG | 1.012 ± 0.007
34 | GGGCTTGCAA | 1.04 ± 0.016
35 | GGGCTTTCTC | 1.09 ± 0.055
36 | GGGCTTTTGG | 0.9868 ± 0.0012
37 | GGGCTTTTTT | 0.98 ± 0.018
38 | GGGGAAAAAT | 1.01 ± 0.032
39 | GGGGAAAACA | 1 ± 0.014
40 | GGGGAAAGGC | 1.02 ± 0.018
41 | GGGGAAAGTA | 1.03 ± 0.03
42 | GGGGAAATAT | 0.981 ± 0.024
43 | GGGGAACTGG | 1.01 ± 0.023
44 | GGGGAAGAAT | 0.9784 ± 0.0021
45 | GGGGAAGAGA | 0.96964 ± 5.5e-05
46 | GGGGAAGAGT | 0.996 ± 0.052
47 | GGGGAAGATA | 0.9862 ± 0.0025
48 | GGGGAAGGTG | 1.79 ± 1
49 | GGGGAAGTAG | 0.994 ± 0.018
50 | GGGGAATCGC | 0.97 ± 0.055

Row | Sequence | switch fluorescence ratio
51 | GGGGAATGAA | 1.019 ± 0.009
52 | GGGGAATGGG | 1.01 ± 0.028
53 | GGGGAATGGT | 1.01 ± 0.074
54 | GGGGAATGTG | 0.963 ± 0.013
55 | GGGGAATTAG | 0.973 ± 0.008
56 | GGGGACAGTT | 1.02 ± 0.017
57 | GGGGACCGGT | 1.054 ± 0.0023
58 | GGGGACGGGA | 0.989 ± 0.024
59 | GGGGACGGTA | 1.03 ± 0.027
60 | GGGGACGTCA | 0.998 ± 0.012
61 | GGGGACGTGG | 0.965 ± 0.011
62 | GGGGAGAAGG | 0.981 ± 0.031
63 | GGGGAGCGGC | 1.02 ± 0.0027
64 | GGGGAGGAAT | 0.971 ± 0.024
65 | GGGGAGGACT | 1 ± 0.021
66 | GGGGAGGAGG | 0.986 ± 0.0087
67 | GGGGAGGAGT | 1.01 ± 0.026
68 | GGGGAGGATT | 0.986 ± 0.027
69 | GGGGAGGGTA | 1.03 ± 0.015
70 | GGGGAGTAGC | 0.999 ± 0.03
71 | GGGGAGTCGG | 1.01 ± 0.047
72 | GGGGAGTTCG | 0.983 ± 0.019
73 | GGGGATAAGG | 0.984 ± 0.042
74 | GGGGATACGG | 1.026 ± 0.0047
75 | GGGGATAGAT | 0.982 ± 0.027

Row | Sequence | switch fluorescence ratio
76 | GGGGATAGT | 1 ± 0.015
77 | GGGGATGCGG | 1.02 ± 0.021
78 | GGGGATGCTC | 1.03 ± 0.018
79 | GGGGATGGGT | 0.999 ± 0.045
80 | GGGGATGTGA | 0.967 ± 0.037
81 | GGGGATGTTG | 0.996 ± 0.013
82 | GGGGATTATT | 0.991 ± 0.036
83 | GGGGATTCT | 0.9936 ± 0.0094
84 | GGGGCACGGC | 1.01 ± 0.03
85 | GGGGCAGCTG | 1.06 ± 0.08
86 | GGGGCAGGAC | 1.54 ± 0.7
87 | GGGGCAGTTA | 1 ± 0.025
88 | GGGGCATCTT | 1.01 ± 0.046
89 | GGGGCCAAGG | 0.981 ± 0.017
90 | GGGGCCACGC | 1.01 ± 0.034
91 | GGGGCCCGAA | 0.981 ± 0.035
92 | GGGGCCGAGG | 0.9573 ± 0.0075
93 | GGGGCCGATA | 1.04 ± 0.079
94 | GGGGCCTCGG | 0.997 ± 0.019
95 | GGGGCGCGCC | 1.022 ± 0.0077
96 | GGGGCGGAGT | 0.989 ± 0.055
97 | GGGGCGGCGG | 0.962 ± 0.066
98 | GGGGCGGGAA | 0.982 ± 0.05
99 | GGGGCGGGAG | 1.03 ± 0.042
100 | GGGGCGTATG | 0.993 ± 0.02
